Experimental data published in patent US20050272649A1, “Conjoint administration of morphogens and ACE inhibitors in treatment of chronic renal failure” (priority 2002, published 2005).
Several values for one entry are separate records, joined by “and”; a condition that tells them apart may be missing. Identical values can stand only once. Entries after “also recorded” stand apart in the source; their conditions may differ. Like-named read-outs stand apart in the source and are kept apart here.

Tests used:
[1] = system: streptozotocin diabetic Sprague-Dawley rats; type: in vivo; details: for Protein Ex (mg/day), urine protein excretion / kidney weight: at 32 weeks; for Mortality: deaths/animals; for GFR (ml/min/100 g bw): inulin clearance at 32 weeks; for prevalence of sclerotic glomeruli (glomerulosclerosis): DM vehicle 10.7±4.0%
Method: A long-term streptozotocin model of diabetic nephropathy was used to test and compare the therapeutic actions of BMP-7 with those of Enalapril. The study design was a treatment protocol beginning at 16 weeks when glomerular hypertrophy and proteinuria were established. The effects of therapy with BMP-7 (10, 30, or 100 μg/kg iv, biw) were compared to a maximal dose of Enalapril (20 mg/kg) and to a vehicle control. […] The GFR of 32 week diabetic Enalapril treated rats was 0.58±0.06 (not significant compared to vehicle treated and sham injected rats 0.55±0.02).
Animals: Female Sprague-Dawley rats 10 weeks of age weighing 190-220 g were used. Animals were allowed free access to standard rat chow and to tap water. Diabetes mellitus was induced by a single tail-vein injection of Streptozotocin (STZ 62 mg/kg of body weight, Sigma chemical company, St. Louis, Mo.) dissolved in normal saline at day 0. The diabetic state was confirmed 72 hours later by the determination of blood glucose concentration>300 mg/dl. From day 3, all the diabetic rats received daily subcutaneous injections of 1.0-7.0 u human recombinant long-acting insulin injection (Eli Lilly & Co., Indianapolis, Ind.) as required to maintain the blood glucose concentration between 300-500 mg/dl. Tail blood glucose levels were measured twice a week with an Accu—Chek™ Advantage meter (Roche Diagnostic Corporation, Indianapolis, Ind.). Body weights were taken once a week. Food and water intake were monitored daily.
Renal hypertrophy was well developed at 16 weeks prior to treatment with vehicle, BMP-7, or enalapril. […], animals were divided into 8 groups. Group 1 were 16 weeks of DM. Group 2 were 16 weeks normal controls. Group 3 DM animals were treated with tail-vein injection of vehicle twice a week for 16 weeks. Group 4, Group 5, and Group 6 were DM animals treated with tail-vein injections of BMP-7 100, 30, and 10 μg/kg body weight respectively twice a week for 16 weeks. Group 7 were treated with Enalapril 20 mg/kg through the drinking water for 16 weeks. […] Group 1 and Group 2 animals were sacrificed at 16 weeks. The others were sacrificed at 32 weeks. All treatments began at 16 weeks and continued through 32 weeks. Glomerular filtration rate (GFR), urine albumin excretion, kidney weight, glomerular area, mesangial matrix area, interstitial volume, monocyte and macrophage infiltration, thickness of glomerular basement membrane (GBM) and glomerulosclerosis were measured.
Renal Function: In all animals, glomerular filtration rate (GFR) was measured as the clearance of inulin. Rats were anesthetized with a Ketamine/Xylozine cocktail. A catheter was inserted into the femoral vein under a dissecting microscope for infusion. Another catheter was placed into the femoral artery for collecting blood samples. Urine was collected by bladder cannulation.
After the completion of surgery, a bolus of 2 ml/kg of 3% inulin (Cypros Pharmaceutical Corp, W. Carlsbad, Calif.) and 0.2% p-aminohippurate (PAH) in normal saline was infused as a priming load, followed by a sustaining infusion of the same solution at the rate of 8 ml/h·kg. Urine collection was initiated for three 20-minute collection periods after an hour of equilibration. An arterial blood sample was obtained during each clearance period. Plasma and urine were analyzed for inulin.
Urine volume was measured and urinary protein concentration was determined with a Bio-Rad protein assay.
Preparation of Kidneys: After the clearance studies, the rats were euthanized. Both kidneys were rapidly removed and placed in ice-cold phosphate buffered saline (PBS). Kidneys were weighed and then sliced on a cold glass plate. Two 2 mm coronal sections were immersed in Histochoice and in 10% buffered formalin. Kidney sections were embedded in paraffin and cut at 3 μm and stained with hematoxylin and eosin, Gomori's Trichrome and periodic acid Schiff (PAS).
Renal Morphology: The morphometric analysis was done in a blind manner. […]

[2] = system: alloxan-induced diabetic Sprague-Dawley rats; assay: Alloxan-induced diabetic nephropathy model; type: in vivo, rat; details: for serum creatinine level / proteinuria level: 12 weeks; for serum creatinine level: diabetic about 115; for proteinuria level: diabetic about 180
Method: Similar to streptozotocin, alloxan kills pancreatic β cells and induces type I diabetes (for review, see Cheta et al. (1998) J Pediatr Endocrinol Metab 11: 11-9). Alloxan is also widely used to induce experimental diabetic nephropathy in animals (FIG. 25). Adult female Sprague-Dawley rats (weighing 200-250 g) were intraperitoneally injected with alloxan (70 mg/kg body weight) to induce hyperglycemia. Renal arteries were clamped just prior to injection to prevent direct nephrotoxicity, and then clamps were removed 5 minutes after injection. At week 16 when renal function declined, animals were treated with OP-1 (10 μg/kg body weight, 3×/week, or 30 μg/kg body weight, 1×/week), enalapril (100 mg/L in drinking water) or the combination of OP-1 and enalapril. Control animals without alloxan treatment were handled in all other ways like treated animals. The treatment duration was 12 weeks. All rats were sacrificed after […].

[3] = BMP-7 10 μg/kg iv twice a week, weeks 16-32
[4] = BMP-7 10 μg/kg iv twice a week, weeks 16-32, listed as BMP
[5] = BMP-7 30 μg/kg iv twice a week, weeks 16-32
[6] = BMP-7 30 μg/kg iv twice a week, weeks 16-32, listed as BMP
[7] = BMP-7 100 μg/kg iv twice a week (high dose), weeks 16-32
[8] = BMP-7 100 μg/kg iv twice a week (high dose), weeks 16-32, listed as BMP
[9] = BMP-7 100 μg/kg iv twice a week, weeks 16-32

B1: OP-1: osteogenic protein-1 (OP-1, also known as BMP-7), morphogen of the OP/BMP family; OP-1 used interchangeably with sBMP-7 (protein)
chain: STGSKQRSQNRSKTPKNQEALRMANVAENSSSDQRQACKKHELYVSFRDLGWQDWIIAPEGYAAYYCEGECAFPLNSYMNATNHAIVQTLVHFINPETVPKPCCAPTQLNAISVLYFDDSSNVILKKYRNMVVRACGCH
- renal BMP-7 expression (in situ hybridization) ([1]; 32 weeks): restored BMP-7 expression at high levels in the collecting duct; also recorded: restored BMP-7 expression in its normal pattern at high levels; also recorded: restored the normal distribution of BMP-7 expression
- renal Wnt4 expression (in situ hybridization) ([1]; 32 weeks): without affecting Wnt4 expression; also recorded: do not affect Wnt4 expression; also recorded: had no effect on Wnt4 expression
- Cause-Mortality unknown ([1]; BMP-7 10 μg/kg iv twice a week): 2/9
- Protein Ex (mg/day), urine protein excretion [1, 3]: 59.46 ± 21.84 mg/day
- kidney weight [1, 3]: 1.19 ± 0.03 g
- Protein Ex (mg/day), urine protein excretion [1, 4]: 59.46 ± 21.84 mg/day
- kidney weight [1, 4]: 1.19 ± 0.03 g
- Mortality [1, 3]: 2/9
- GFR (ml/min/100 g bw) [1, 3]: 0.59±0.07 ml/min/100 g bw
- GFR (ml/min/100 g bw) [1, 4]: 0.59 ± 0.07 ml/min/100 g bw
- prevalence of sclerotic glomeruli (glomerulosclerosis) ([1]; BMP-7 10 μg/kg, weeks 16-32): 4.1±1.4%
- Cause-Mortality anesthesia ([1]; BMP-7 30 μg/kg iv twice a week): 1/9
- Protein Ex (mg/day), urine protein excretion [1, 5]: 33.02 ± 9.11 mg/day
- kidney weight [1, 5]: 1.19 ± 0.03 g
- Protein Ex (mg/day), urine protein excretion [1, 6]: 33.02 ± 9.11 mg/day
- kidney weight [1, 6]: 1.19 ± 0.03 g
- Mortality [1, 5]: 1/9
- GFR (ml/min/100 g bw) [1, 5]: 0.61±0.09 ml/min/100 g bw and 0.62±0.09 ml/min/100 g bw
- GFR (ml/min/100 g bw) [1, 6]: 0.62 ± 0.09 ml/min/100 g bw
- prevalence of sclerotic glomeruli (glomerulosclerosis) ([1]; BMP-7 30 μg/kg, weeks 16-32): 3.5±0.8%
- Cause-Mortality hypoglycemia ([1]; BMP-7 100 μg/kg iv twice a week): 1/10
- kidney weight [1, 7]: 1.10 ± 0.03 g
- kidney weight [1, 8]: 1.10 ± 0.03 g
- GFR (ml/min/100 g bw) [1, 7]: 0.7±0.08 ml/min/100 g bw
- GFR (ml/min/100 g bw) [1, 8]: 0.70 ± 0.08 ml/min/100 g bw
- Protein Ex (mg/day), urine protein excretion [1, 9]: 14.27 ± 3.50 mg/day
- Protein Ex (mg/day), urine protein excretion ([1]; BMP-7 100 μg/kg iv twice a week, weeks 16-32, listed as BMP): 14.27 ± 3.50 mg/day
- Mortality [1, 9]: 1/10
- prevalence of sclerotic glomeruli (glomerulosclerosis) ([1]; BMP-7 100 μg/kg, weeks 16-32): 2.1±0.3%
- cortical interstitial area / volume ([1]; BMP-7 high dose (100 μg/kg), weeks 16-32, DM vehicle 13.1±0.7%): 10.7±0.3%
- monocyte/macrophage tubulointerstitial infiltration ([1]; ED-1 positive cells, 32 weeks): decreased the tubulointerstitial infiltration
- mesangial matrix accumulation (in words) ([1]; PAS / Trichrome histology at 32 weeks): dose dependent reduction in the accumulation of mesangial matrix; also recorded: more effective than Enalapril; also recorded: greater mesangial matrix accumulation than the two higher doses
- glomerular area / glomerular hypertrophy (in words) ([1]; treatment weeks 16-32): significantly decreased; also recorded: partially reversed glomerular hypertrophy; also recorded: equally effective
- glomerulosclerosis (in words) ([1]; treatment weeks 16-32): prevented by BMP-7 therapy more effectively than by Enalapril; also recorded: prevented the development of glomerulosclerosis; also recorded: markedly reduced; also recorded: prevented the development of glomerular sclerosis; also recorded: more effective than Enalapril; also recorded: decreased glomerular sclerosis; also recorded: significantly better than that of Enalapril
- interstitial volume (in words) ([1]; treatment weeks 16-32): significantly decreased; also recorded: reversed the increase in the expanded interstitial volume; also recorded: equally effective
- systolic blood pressure (tail artery cuff) ([1]; treatment weeks 16-32): did not effect blood pressure until the final four weeks of therapy; also recorded: had no effect on blood pressure until after 28 weeks; also recorded: blood pressures were normalized; also recorded: did not affect blood pressure until late in the course of the study; also recorded: did not affect blood pressure until the last four weeks of therapy
- urine protein excretion / proteinuria / albuminuria (in words) ([1]; treatment weeks 16-32): reversed to normal; also recorded: more effective in reversing proteinuria; also recorded: dose dependently eliminated proteinuria; also recorded: more effective than Enalapril
- GFR (in words) ([1]; treatment weeks 16-32, versus vehicle-treated diabetic and normal rats): normal or greater; also recorded: restored glomerular filtration rate to normal; also recorded: more effective than Enalapril; also recorded: restored GFR to normal or slightly above normal
- kidney weight / renal hypertrophy (in words) ([1]; treatment weeks 16-32, versus vehicle-treated diabetic rats): equal in partially reversing kidney hypertrophy; also recorded: partially reversed diabetic renal hypertrophy; also recorded: partially restored kidney weights towards normal; also recorded: equally effective
- proteinuria level (in words) ([2]; 12 weeks of treatment): reduces the proteinuria level; also recorded: reduce the preteinuria level
- serum creatinine level (in words) ([2]; 12 weeks of treatment): decreases the serum creatinine level; also recorded: dramatically reduces the serum creatinine level
- serum creatinine level ([2]; OP-1 10 μg/kg 3×/week): about 65 μmole/L
- proteinuria level ([2]; OP-1 10 μg/kg 3×/week): about 80 mg/dL/24 hr
- serum creatinine level ([2]; OP-1 30 μg/kg 1×/week): ~55 µmol/L
- proteinuria level ([2]; OP-1 30 μg/kg 1×/week): ~110 mg/dL/24 hr
